B1: Protein PTHB1 (Homo sapiens), Q3SYG4 (parent)
chain: MSLFKARDWWSTILGDKEEFDQGCLCLANVDNSGNGQDKIIVGSFMGYLRIFSPHPAKTGDGAQAEDLLLEVDLRDPVLQVEVGKFVSGTEMLHLAVLHSRKLCVYSVSGTLGNVEHGNQCQMKLMYEHNLQRTACNMTYGSFGGVKGRDLICIQSMDGMLMVFEQESYAFGRFLPGFLLPGPLAYSSRTDSFLTVSSCQQVESYKYQVLAFATDADKRQETEQQKLGSGKRLVVDWTLNIGEQALDICIVSFNQSASSVFVLGERNFFCLKDNGQIRFMKKLDWSPSCFLPYCSVSEGTINTLIGNHNNMLHIYQDVTLKWATQLPHIPVAVRVGCLHDLKGVIVTLSDDGHLQCSYLGTDPSLFQAPNVQSRELNYDELDVEMKELQKIIKDVNKSQGVWPMTEREDDLNVSVVVSPNFDSVSQATDVEVGTDLVPSVTVKVTLQNRVILQKAKLSVYVQPPLELTCDQFTFEFMTPDLTRTVSFSVYLKRSYTPSELEGNAVVSYSRPTDRNPDGIPRVIQCKFRLPLKLICLPGQPSKTASHKITIDTNKSPVSLLSLFPGFASQSDDDQVNVMGFHFLGGARITVLASKTSQRYRIQSEQFEDLWLITNELILRLQEYFEKQGVKDFACSFSGSIPLQEYFELIDHHFELRINGEKLEELLSERAVQFRAIQRRLLARFKDKTPAPLQHLDTLLDGTYKQVIALADAVEENQGNLFQSFTRLKSATHLVILLIALWQKLSADQVAILEAAFLPLQEDTQELGWEETVDAAISHLLKTCLSKSSKEQALNLNSQLNIPKDTSQLKKHITLLCDRLSKGGRLCLSTDAAAPQTMVMPGGCTTIPESDLEERSVEQDSTELFTNHRHLTAETPRPEVSPLQGVSE
partner: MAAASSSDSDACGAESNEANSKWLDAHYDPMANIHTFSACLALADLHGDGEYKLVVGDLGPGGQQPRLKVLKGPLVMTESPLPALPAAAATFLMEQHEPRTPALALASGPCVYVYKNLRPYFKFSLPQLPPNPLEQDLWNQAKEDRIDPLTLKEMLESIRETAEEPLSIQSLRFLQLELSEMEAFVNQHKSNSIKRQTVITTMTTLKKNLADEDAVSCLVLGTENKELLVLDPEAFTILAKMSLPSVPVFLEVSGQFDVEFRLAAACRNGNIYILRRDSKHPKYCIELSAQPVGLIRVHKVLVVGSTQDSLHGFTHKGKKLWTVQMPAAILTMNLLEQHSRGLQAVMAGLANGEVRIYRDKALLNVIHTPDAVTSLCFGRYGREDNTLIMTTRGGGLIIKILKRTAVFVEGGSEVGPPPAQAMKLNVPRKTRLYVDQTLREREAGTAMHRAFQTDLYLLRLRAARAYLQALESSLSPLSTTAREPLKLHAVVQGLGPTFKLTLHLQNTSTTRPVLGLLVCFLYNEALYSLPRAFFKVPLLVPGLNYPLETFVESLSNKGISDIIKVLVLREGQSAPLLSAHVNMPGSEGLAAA

Variants of: B1
Conditions: with bbs1_human BBS1, Q8NFJ9

| Variant | effect of a mutation on the interaction |
| --- | --- |
| L529K | with no effect |
| N420K | with no effect |
| L851K | with no effect |
| S555A | with no effect |
| V413K | with no effect |
| L680K | with no effect |
| D817N | disrupting interaction strength |
| K532A | with no effect |
| S849K | with no effect |
| Q722T | disrupting interaction strength |
| L536K | with no effect |
| Q705K | with no effect |
| E668K | with no effect |
| F632A | with no effect |
| S729A | with no effect |
| V713A | with no effect |
| S486K | with no effect |
| A455K | with no effect |
| P875E | with no effect |
| P875K | with no effect |
| S439K | with no effect |
| Y508K | with no effect |
| P691S | disrupting interaction strength |
| P691K | with no effect |
| F721E | with no effect |
| L737K | with no effect |

| Variant | effect of a mutation on the interaction |
| --- | --- |
| N800A | with no effect |
| R598E | with no effect |
| T697A | with no effect |
| R407K | with no effect |
| V575A | with no effect |
| A792K | with no effect |
| T552E | with no effect |
| K821A | with no effect |
| A872E | with no effect |
| Q764K | with no effect |
| Q471E | with no effect |
| V590K | with no effect |
| E769A | with no effect |
| A675K | with no effect |
| C535K | with no effect |
| Q835E | with no effect |
| G585R | disrupting interaction strength |
| L452A | with no effect |
| S806A | with no effect |
| L736A | with no effect |
| L736K | with no effect |
| C843E | with no effect |
| C843A | with no effect |
| T731A | with no effect |
| Q748A | with no effect |
| F474A | with no effect |

| Variant | effect of a mutation on the interaction |
| --- | --- |
| F527A | with no effect |
| L815E | with no effect |
| A750E | with no effect |
| A750K | with no effect |
| L784E | with no effect |
| S860K | with no effect |
| T434K | with no effect |
| S745E | with no effect |
| C469E | with no effect |
| C469Y | disrupting interaction strength |
| S788K | with no effect |
| K443A | with no effect |
| N503E | with no effect |
| N503A | with no effect |
| T589K | with no effect |
| L616E | with no effect |
| L616F | disrupting interaction strength |
| Q574A | with no effect |
| F580E | with no effect |
| D435K | with no effect |
| R876A | with no effect |
| T874E | with no effect |
| Y495K | with no effect |
| L744A | with no effect |
| Q742K | with no effect |
| Q453A | with no effect |

| Variant | effect of a mutation on the interaction |
| --- | --- |
| S723A | disrupting interaction strength |
| R510K | with no effect |
| I519A | with no effect |
| Q760A | with no effect |
| Q760E | with no effect |
| S507E | with no effect |
| S507K | with no effect |
| V450K | with no effect |
| S797A | with no effect |
| F684A | with no effect |
| H581A | with no effect |
| H869K | with no effect |
| G565S | disrupting interaction strength |
| K554A | with no effect |
| S558K | with no effect |
| S558A | with no effect |
| T549A | with no effect |
| L740A | with no effect |
| L642A | with no effect |
| D700K | with no effect |
| S603E | with no effect |
| S603A | with no effect |
| S603K | with no effect |
| T702K | with no effect |
| L500K | with no effect |
| C634S | disrupting interaction strength |

| Variant | effect of a mutation on the interaction |
| --- | --- |
| G841K | with no effect |
| S637K | with no effect |
| A682E | with no effect |
| K803E | with no effect |
| V417A | with no effect |
| Q462A | with no effect |
| T836E | with no effect |
| L491K | with no effect |
| I588K | with no effect |
| P511A | with no effect |
| F653E | with no effect |
| Y599K | with no effect |
| Q717K | with no effect |
| E654G | disrupting interaction strength |
| L681E | with no effect |
| L620F | disrupting interaction strength |
| R528A | with no effect |
| L692A | with no effect |
| Q524K | with no effect |
| E848K | with no effect |
| L648E | with no effect |
| Y623K | with no effect |
| K626A | with no effect |
| K626E | with no effect |
| A775K | with no effect |
| V415A | with no effect |

| Variant | effect of a mutation on the interaction |
| --- | --- |
| L827K | with no effect |
| G502R | disrupting interaction strength |
| T473A | with no effect |
| F582K | with no effect |
| T844K | with no effect |
| K809E | disrupting interaction strength |
| P438K | with no effect |
| K786A | with no effect |
| K786E | with no effect |
| A690T | disrupting interaction strength |
| A690K | disrupting interaction strength |
| A544K | with no effect |
| P758A | with no effect |
| P556A | with no effect |
| Q677K | with no effect |
| W610E | with no effect |
| T865K | with no effect |
| T813A | with no effect |
| T813K | with no effect |
| K526E | with no effect |
| D631E | with no effect |
| A755K | with no effect |
| N796E | with no effect |
| H778E | disrupting interaction strength |
| D804F | disrupting interaction strength |
| E615A | with no effect |

| Variant | effect of a mutation on the interaction |
| --- | --- |
| E615K | with no effect |
| G767A | with no effect |
| L780E | with no effect |
| L780K | with no effect |
| C525A | with no effect |
| E862K | with no effect |
| Y703A | with no effect |
| S509K | with no effect |
| K704E | with no effect |
| G638E | with no effect |
| T428K | with no effect |
| D409A | with no effect |
| L467A | with no effect |
| I601A | with no effect |
| R679A | with no effect |
| V489E | with no effect |
| V489K | with no effect |
| E475K | with no effect |
| F421A | with no effect |
| L559K | with no effect |
| L562K | with no effect |

Variants of: B1
Conditions: with bbs1_human BBS1, Q8NFJ9
Remark: another data set of the same source

| Variant | effect of a mutation on the interaction |
| --- | --- |
| S745E | disrupting interaction strength |
| A690K | with no effect |

— IntAct's records for PubMed 29039417
